This passage reports Kd, fluorescence signal (fluorescence/OD600) (arbitrary units/OD600) and fluorescence to OD600 ratio (arbitrary units/OD600) results from paper PMC9952896.

pKd: −log10 of the molar value.

For orientation: pKd means the Kd on a negative log10 scale, so that one unit is a factor of ten.

Assay [1] deals with HSP (hsp70) (Homo sapiens) (UniProt P0DMV8). To be noted: cited from earlier work.
The target of another assay is HSP-CGFP [GFP: P42212]. Nature of the assay: split reporter (BiFC, NanoBiT); split-GFP reassembly competition assay, GFP variant sg100: E. coli T7 cells co-transformed with the NGFP plasmid, the CGFP plasmid and p17Tet with a competitor or p17Tet-stop; 0.5 mM IPTG and 2% arabinose, overnight to 72 h at 17 °C; fluorescence (arbitrary units) divided by OD600 of cells resuspended in PBS, triplicates.

Assay [2] has as its target XD-CGFP (not His-tagged) (measles virus | not stated) (UniProt P03422). Described as above.

UniProt P0DMV8, sequence (P0DMV8 2-641): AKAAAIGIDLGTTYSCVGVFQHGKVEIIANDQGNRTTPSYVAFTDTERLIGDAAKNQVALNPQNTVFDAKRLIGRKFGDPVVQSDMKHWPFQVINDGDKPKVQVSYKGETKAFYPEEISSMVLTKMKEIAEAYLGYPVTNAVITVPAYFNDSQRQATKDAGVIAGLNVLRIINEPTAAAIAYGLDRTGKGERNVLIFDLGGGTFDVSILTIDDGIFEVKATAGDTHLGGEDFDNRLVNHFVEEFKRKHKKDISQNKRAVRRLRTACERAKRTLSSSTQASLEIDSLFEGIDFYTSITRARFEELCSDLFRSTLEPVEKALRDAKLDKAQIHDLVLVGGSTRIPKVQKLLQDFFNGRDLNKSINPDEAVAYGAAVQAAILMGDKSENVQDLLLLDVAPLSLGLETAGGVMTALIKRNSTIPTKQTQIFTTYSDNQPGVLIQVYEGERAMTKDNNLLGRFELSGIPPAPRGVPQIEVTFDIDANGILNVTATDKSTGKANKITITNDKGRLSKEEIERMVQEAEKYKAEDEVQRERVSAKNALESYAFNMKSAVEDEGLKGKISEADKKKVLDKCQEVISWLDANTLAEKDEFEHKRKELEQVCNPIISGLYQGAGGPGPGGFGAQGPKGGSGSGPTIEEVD

As for “Nucleoprotein NTAIL NTAIL (from UniProt P35972)”, the negative-log Kd (pKd) in assay [1] is 4.15. “NGFP-471 (His-NGFP-471) (from UniProt P42212 1-157; P04851 471-525) (domain or fragment)” had a fluorescence signal (fluorescence/OD600) (arbitrary units/OD600) with HSP-CGFP [GFP: P42212] of 300.

“NGFP alone (His-NGFP, from the construct NGFP-stop) (from UniProt P42212 1-157) (domain or fragment)”: the fluorescence to OD600 ratio (arbitrary units/OD600) (with HSP-CGFP [GFP: P42212]; in assay [2]) was 200 throughout.
